Laboratory results reported in patent US20260109776A1 (Amgen, published 2026).

What was measured:
huCD40(1-193) [1] = target: T1, huCD40(1-193) (human, UniProt P25942 21-193); test: Octet
T1 construct: also called soluble human CD40
Protocol: (§1) A panel of mesothelin×CD40 bispecific antibodies were generated in the IgG-scFv format (Table 13) and evaluated for binding to soluble forms of human and cynomolgus monkey CD40 and human and cynomolgus monkey mesothelin using the Octet assay (Table 14). Association rate (Kon), disassociation rate (Kdis), and equilibrium binding constant (KD) were calculated. […] These bispecific antibodies were next evaluated for their ability to induce mesothelin-dependent activation of human B cells. CHO cells expressing human mesothelin were seeded into a 96 well plate. The next day varying concentrations of the mesothelin×CD40 IgG-scFv antibodies were added to the wells along with purified human B cells and the plates were incubated for an additional 48 hours. Upregulation of CD86, a marker of CD40-mediated B cell activation, was quantified on B cells by flow cytometry.

cynoCD40(1-193) [2] = target: T2, cynoCD40(1-193) (cynomolgus monkey, UniProt P25942 21-193 (human entry)); test: Octet
T2 construct: also called soluble cynomolgus monkey CD40
T2 chain: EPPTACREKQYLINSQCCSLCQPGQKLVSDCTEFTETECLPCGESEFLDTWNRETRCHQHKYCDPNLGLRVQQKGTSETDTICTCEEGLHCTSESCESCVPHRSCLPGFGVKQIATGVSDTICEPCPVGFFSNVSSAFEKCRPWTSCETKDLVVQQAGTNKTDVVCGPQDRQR
Protocol: as §1

huMSLN(296-598) [3] = target: T3, huMSLN(296-598) (human, UniProt Q13421 296-598); test: Octet
T3 construct: also called soluble human mesothelin
Protocol: as §1
T3 sequence (Q13421 other isoform, or with tags, fused parts or gaps): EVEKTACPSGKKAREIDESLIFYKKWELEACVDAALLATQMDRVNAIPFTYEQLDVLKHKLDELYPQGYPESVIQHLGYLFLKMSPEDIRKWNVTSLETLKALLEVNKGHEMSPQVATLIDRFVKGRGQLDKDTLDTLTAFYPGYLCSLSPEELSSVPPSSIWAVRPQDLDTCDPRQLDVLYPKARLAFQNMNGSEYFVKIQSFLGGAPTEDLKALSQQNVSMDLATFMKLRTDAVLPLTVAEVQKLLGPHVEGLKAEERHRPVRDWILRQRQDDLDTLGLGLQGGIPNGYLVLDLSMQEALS

cynoMSLN(296-598) = target: T4, cynoMSLN(296-598) (cynomolgus monkey); test: Octet
T4 chain: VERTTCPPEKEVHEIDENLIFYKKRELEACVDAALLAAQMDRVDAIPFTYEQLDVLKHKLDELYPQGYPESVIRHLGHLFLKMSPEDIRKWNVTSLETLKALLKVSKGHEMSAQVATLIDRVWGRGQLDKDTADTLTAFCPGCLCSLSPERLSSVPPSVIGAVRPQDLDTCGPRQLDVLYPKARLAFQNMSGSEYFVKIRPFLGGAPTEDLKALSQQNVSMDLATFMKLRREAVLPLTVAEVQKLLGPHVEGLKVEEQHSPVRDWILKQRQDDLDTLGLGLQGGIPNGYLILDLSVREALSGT
Protocol: as §1

human CD40 = human CD40 (human, UniProt P25942 21-277); test: cell-based or functional assay
huCD40(1-193) [4] = target: T5, huCD40(1-193) (human, UniProt P25942 21-193); test: Octet, soluble antigen
T5 construct: Soluble form used in Octet; also called human CD40; soluble human CD40

cynoCD40(1-193) [5] = target: T6, cynoCD40(1-193) (cynomolgus monkey, UniProt P25942 21-193 (human entry)); test: Octet, soluble antigen
T6 construct: Soluble form used in Octet; also called cynomolgus monkey CD40
T6 chain: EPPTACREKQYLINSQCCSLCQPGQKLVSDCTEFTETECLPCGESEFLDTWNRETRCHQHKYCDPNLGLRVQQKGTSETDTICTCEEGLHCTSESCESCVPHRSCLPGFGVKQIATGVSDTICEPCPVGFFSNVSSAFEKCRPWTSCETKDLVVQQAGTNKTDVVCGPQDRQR

huMSLN(296-598) [6] = target: huMSLN(296-598) (human, UniProt Q13421 296-598); test: Octet, soluble antigen
Target sequence in this assay (Q13421 other isoform, or with tags, fused parts or gaps): as the sequence (Q13421 other isoform, or with tags, fused parts or gaps) above

[7] = target: human CD40 on purified human B cells (human, UniProt P25942 21-277); test: cell-based or functional assay

B1: 6053-2 (bispecific antibody)
heavy: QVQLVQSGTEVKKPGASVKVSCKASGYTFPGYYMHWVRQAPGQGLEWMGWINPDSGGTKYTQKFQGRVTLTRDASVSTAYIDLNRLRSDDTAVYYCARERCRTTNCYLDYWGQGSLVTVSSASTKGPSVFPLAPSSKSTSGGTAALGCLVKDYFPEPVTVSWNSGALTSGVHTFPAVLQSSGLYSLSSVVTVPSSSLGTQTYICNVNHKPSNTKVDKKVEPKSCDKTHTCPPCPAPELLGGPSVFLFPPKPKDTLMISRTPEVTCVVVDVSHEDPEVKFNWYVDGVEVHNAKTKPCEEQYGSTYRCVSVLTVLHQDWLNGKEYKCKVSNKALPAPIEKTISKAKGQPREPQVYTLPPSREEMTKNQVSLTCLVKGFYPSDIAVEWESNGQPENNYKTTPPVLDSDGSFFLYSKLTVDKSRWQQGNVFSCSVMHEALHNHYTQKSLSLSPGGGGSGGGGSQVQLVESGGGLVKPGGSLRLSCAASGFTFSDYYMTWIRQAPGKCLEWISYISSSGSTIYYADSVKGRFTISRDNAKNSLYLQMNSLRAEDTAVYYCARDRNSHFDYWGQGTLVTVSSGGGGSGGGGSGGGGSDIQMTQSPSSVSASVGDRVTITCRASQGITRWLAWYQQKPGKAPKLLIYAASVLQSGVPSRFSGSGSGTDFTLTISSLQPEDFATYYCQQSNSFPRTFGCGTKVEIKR
light: QSALTQPASVSGSPGQSITISCTGTSSDVGNYNLVSWYQQHPGKAPKLMIYEVNRRPSGVSNRFSGSKSGNTASLTISGLQAEDEAEYYCCSYAGRDTFVVFGGGTKLTVLGQPKAAPSVTLFPPSSEELQANKATLVCLISDFYPGAVTVAWKADSSPVKAGVETTTPSKQSNNKYAASSYLSLTPEQWKSHRSYSCQVTHEGSTVEKTVAPTECS
notes: IgG-scFv: IgG (CD40) 39C2, scFv (MSLN) 4H6
huCD40(1-193) [1]
  Kd: 0.9 nM
  koff: 0.000427 s⁻¹
  kon: 453000 M⁻¹ s⁻¹
cynoCD40(1-193) [2]
  Kd: 0.5 nM
  koff: 0.000125 s⁻¹
  kon: 263000 M⁻¹ s⁻¹
huMSLN(296-598) [3]
  Kd: 0.4 nM
  koff: 0.000151 s⁻¹
  kon: 341000 M⁻¹ s⁻¹
cynoMSLN(296-598)
  Kd: 4.3 nM
  koff: 0.00109 s⁻¹
  kon: 252000 M⁻¹ s⁻¹
Human CD40
  EC50 (nM), CD86 upregulation on human B cells with huMSLN-CHO cells: 0.00403 nM

B2: 6023-2 (bispecific antibody)
heavy: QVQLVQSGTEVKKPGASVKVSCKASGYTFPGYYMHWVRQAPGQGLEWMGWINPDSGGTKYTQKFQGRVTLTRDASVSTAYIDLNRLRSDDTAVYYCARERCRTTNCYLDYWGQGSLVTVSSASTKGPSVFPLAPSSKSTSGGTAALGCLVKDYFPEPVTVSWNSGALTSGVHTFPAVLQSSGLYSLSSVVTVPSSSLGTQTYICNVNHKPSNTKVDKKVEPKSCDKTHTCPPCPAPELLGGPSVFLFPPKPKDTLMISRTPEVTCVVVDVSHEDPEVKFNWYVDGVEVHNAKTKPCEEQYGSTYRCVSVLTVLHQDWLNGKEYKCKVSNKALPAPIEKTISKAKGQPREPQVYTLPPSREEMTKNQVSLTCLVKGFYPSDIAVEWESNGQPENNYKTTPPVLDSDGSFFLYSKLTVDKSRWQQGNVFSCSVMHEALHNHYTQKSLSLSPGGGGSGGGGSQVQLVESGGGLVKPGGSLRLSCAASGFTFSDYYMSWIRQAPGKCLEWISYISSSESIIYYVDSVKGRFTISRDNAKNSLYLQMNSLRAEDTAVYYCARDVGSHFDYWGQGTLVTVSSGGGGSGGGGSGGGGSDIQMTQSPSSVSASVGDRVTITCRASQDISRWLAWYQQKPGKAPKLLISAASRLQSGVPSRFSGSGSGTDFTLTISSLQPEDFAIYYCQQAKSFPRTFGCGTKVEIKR
light: QSALTQPASVSGSPGQSITISCTGTSSDVGNYNLVSWYQQHPGKAPKLMIYEVNRRPSGVSNRFSGSKSGNTASLTISGLQAEDEAEYYCCSYAGRDTFVVFGGGTKLTVLGQPKAAPSVTLFPPSSEELQANKATLVCLISDFYPGAVTVAWKADSSPVKAGVETTTPSKQSNNKYAASSYLSLTPEQWKSHRSYSCQVTHEGSTVEKTVAPTECS
notes: IgG-scFv: IgG (CD40) 39C2, scFv (MSLN) 6F4
huCD40(1-193) [1]
  Kd: 1 nM
  koff: 0.00044 s⁻¹
  kon: 431000 M⁻¹ s⁻¹
cynoCD40(1-193) [2]
  Kd: 0.9 nM
  koff: 0.000413 s⁻¹
  kon: 447000 M⁻¹ s⁻¹
huMSLN(296-598) [3]
  Kd: 1.1 nM
  koff: 0.00046 s⁻¹
  kon: 432000 M⁻¹ s⁻¹
cynoMSLN(296-598)
  Kd: 16 nM
  koff: 0.00535 s⁻¹
  kon: 326000 M⁻¹ s⁻¹
Human CD40
  EC50 (nM), CD86 upregulation on human B cells with huMSLN-CHO cells: 0.00281 nM

B3: Anti-CD40xMSLN IgG-Fab molecule 5966-1 (bispecific antibody)
chain 1: QVQLVESGGGLVKPGGSLRLSCAASGFTFSDYYMTWIRQAPGKGLEWISYISSSGSTIYYADSVKGRFTISRDNAKNSLYLQMNSLRAEDTAVYYCARDRNSHFDYWGQGTLVTVSS
chain 2: DIQMTQSPSSVSASVGDRVTITCRASQGITRWLAWYQQKPGKAPKLLIYAASVLQSGVPSRFSGSGSGTDFTLTISSLQPEDFATYYCQQSNSFPRTFGQGTKVEIK
chain 3: QVQLVESGGGLVKPGGSLRLSCAASEFTFSDYYMSWIRQAPGKGLEWVSYISRSGDTIYYADSVKGRFTISRDNAKNSLYLQMNGLRAEDTAVYYCARDLAAGATGGLDCWGQGTLVTVSS
chain 4: SYELTQPPSVSVSPGQTASITCSGERLGNKYICWYQQKPGQSPVLVIYQDFKRPSGIPERFSGSNSGITATLTISGTQAMDEADYYCQAWDSRTVVFGGGTKLTVLG
huCD40(1-193) [4]
  Kd: 0.7 nM
  koff: 0.000403 s⁻¹
  kon: 584000 M⁻¹ s⁻¹
cynoCD40(1-193) [5]
  Kd: 0.9 nM
  koff: 0.000358 s⁻¹
  kon: 420000 M⁻¹ s⁻¹
huMSLN(296-598) [6]
  Kd: 0.2 nM
  koff: 0.000176 s⁻¹
  kon: 878000 M⁻¹ s⁻¹
[7]
  EC50 (nM), CD86 upregulation on human B cells in the presence of CHO cells expressing human mesothelin: 0.008 nM

B4: Anti-CD40xMSLN IgG-Fab molecule 5968-1 (bispecific antibody)
chain 1: QVQLVESGGGLVKPGGSLRLSCAASGFTFSDYYMSWIRQAPGKGLEWISYISSSESIIYYVDSVKGRFTISRDNAKNSLYLQMNSLRAEDTAVYYCARDVGSHFDYWGQGTLVTVSS
chain 2: DIQMTQSPSSVSASVGDRVTITCRASQDISRWLAWYQQKPGKAPKLLISAASRLQSGVPSRFSGSGSGTDFTLTISSLQPEDFAIYYCQQAKSFPRTFGQGTKVEIKR
chain 3: EVQLLESGGGLVQPGGSLRLSCAASGFTFSRNAMSWVRQAPGKGLEWVSATGGSGISTYYADSVKGRFTISRDNSKNTLYLQMNSLRAEDTAVYYCARGYSNSWWYFDYWGQGTLVTVSS
chain 4: QSALTQPASVSGSPGQSITISCTGTSSDVGNYNLVSWYQQHPGKAPKLMIFEVNQRPSGVSNRFSGSKSGTTASLTISGLQAADEADYFCCSYTTSSTYVIFGGGTKLTVLGQPKAAPSVTLFPPSSEELQANKATLVCLISDFYPGAVTVAWKADSSPVKAGVETTTPSKQSNNKYAASSYLSLTPEQWKSHRSYSCQVTHEGSTVEKTVAPTECS
huCD40(1-193) [4]
  Kd: 0.4 nM
  koff: 0.000256 s⁻¹
  kon: 650000 M⁻¹ s⁻¹
cynoCD40(1-193) [5]
  Kd: 0.7 nM
  koff: 0.000414 s⁻¹
  kon: 598000 M⁻¹ s⁻¹
huMSLN(296-598) [6]
  Kd: 0.3 nM
  koff: 0.000353 s⁻¹
  kon: 1.03e+06 M⁻¹ s⁻¹
[7]
  EC50 (nM), CD86 upregulation on human B cells in the presence of CHO cells expressing human mesothelin: 0.004 nM

B5: Anti-CD40xMSLN IgG-Fab molecule 5970-1 (bispecific antibody)
chain 1: QVQLVESGGGLVKPGGSLRLSCAASGFTFSDYYMSWIRQAPGKGLEWISYISSSESIIYYVDSVKGRFTISRDNAKNSLYLQMNSLRAEDTAVYYCARDVGSHFDYWGQGTLVTVSS
chain 2: DIQMTQSPSSVSASVGDRVTITCRASQDISRWLAWYQQKPGKAPKLLISAASRLQSGVPSRFSGSGSGTDFTLTISSLQPEDFAIYYCQQAKSFPRTFGQGTKVEIKR
chain 3: QVQLVESGGGVVQPGRSLRLSCAASGFTFSSHGMHWVRQPPGKGLEWVAVIWYDGSNEYYGDSVKGRFTISRDNSKNTLYLQMNSLRVEDTAVYYCTRGGGHWNYEGHYYGMDVWGQGTTVTVSS
chain 4: QAVPTQPSSLSASPGASASLTCTLRSGINVGSSRIYWYQQKPGSPPQFLLRYTSDSDKLQGSGVPSRFSGSKDASANAGLLLISGLQSEDEADYYCMIWHSSAVVFGGGTKLTVLG
huCD40(1-193) [4]
  Kd: 1.6 nM
  koff: 0.000395 s⁻¹
  kon: 245000 M⁻¹ s⁻¹
cynoCD40(1-193) [5]
  Kd: 1.3 nM
  koff: 0.000208 s⁻¹
  kon: 163000 M⁻¹ s⁻¹
huMSLN(296-598) [6]
  Kd: 0.3 nM
  koff: 0.000258 s⁻¹
  kon: 774000 M⁻¹ s⁻¹
[7]
  EC50 (nM), CD86 upregulation on human B cells in the presence of CHO cells expressing human mesothelin: 0.005 nM

B6: Anti-CD40xMSLN IgG-Fab molecule 5991-1 (bispecific antibody)
chain 1: EVQLLESGGGLVQPGGSLRLSCAASGFTFSRNAMSWVRQAPGKGLEWVSATGGSGISTYYADSVKGRFTISRDNSKNTLYLQMNSLRAEDTAVYYCARGYSNSWWYFDYWGQGTLVTVSS
chain 2: QSALTQPASVSGSPGQSITISCTGTSSDVGNYNLVSWYQQHPGKAPKLMIFEVNQRPSGVSNRFSGSKSGTTASLTISGLQAADEADYFCCSYTTSSTYVIFGGGTKLTVLGQPKAAPSVTLFPPSSEELQANKATLVCLISDFYPGAVTVAWKADSSPVKAGVETTTPSKQSNNKYAASSYLSLTPEQWKSHRSYSCQVTHEGSTVEKTVAPTECS
chain 3: QVQLVESGGGLVKPGGSLRLSCAASGFTFSDYYMSWIRQAPGKGLEWISYISSSESIIYYVDSVKGRFTISRDNAKNSLYLQMNSLRAEDTAVYYCARDVGSHFDYWGQGTLVTVSS
chain 4: DIQMTQSPSSVSASVGDRVTITCRASQDISRWLAWYQQKPGKAPKLLISAASRLQSGVPSRFSGSGSGTDFTLTISSLQPEDFAIYYCQQAKSFPRTFGQGTKVEIKR
huCD40(1-193) [4]
  Kd: 0.4 nM
  koff: 0.000467 s⁻¹
  kon: 1.08e+06 M⁻¹ s⁻¹
cynoCD40(1-193) [5]
  Kd: 0.2 nM
  koff: 0.000423 s⁻¹
  kon: 1.86e+06 M⁻¹ s⁻¹
huMSLN(296-598) [6]
  Kd: 1.3 nM
  koff: 0.000242 s⁻¹
  kon: 181000 M⁻¹ s⁻¹
[7]
  EC50 (nM), CD86 upregulation on human B cells in the presence of CHO cells expressing human mesothelin: 0.004 nM

B7: Anti-CD40xMSLN IgG-Fab molecule 5972-1 (bispecific antibody)
chain 1: QVQLVESGGGLVKPGGSLRLSCAASGFTFSDYYMSWIRQAPGKGLEWISYISSSESIIYYVDSVKGRFTISRDNAKNSLYLQMNSLRAEDTAVYYCARDVGSHFDYWGQGTLVTVSS
chain 2: DIQMTQSPSSVSASVGDRVTITCRASQDISRWLAWYQQKPGKAPKLLISAASRLQSGVPSRFSGSGSGTDFTLTISSLQPEDFAIYYCQQAKSFPRTFGQGTKVEIKR
chain 3: QVQLQQSGPGLVKPSQTLSLTCAISGDSVSSSRTAWNWIRQSPSRGLEWLGRTYYRSKWYHDYSVSVKSRITIDPDTSKNQFSLQLNSVTPEDTAVYYCARGAAPFDYWGQGTLVTVSS
chain 4: EIVLTQSPGTLSLSPGERATLSCRASQSVSSNYLAWYQQKPGQAPRALIYAASNRAAGISDRFSGSGSGTDFTLTISRLEPEDFAVYFCQQYGSSPLTFGGGTKVEIKR
huCD40(1-193) [4]
  Kd: 4 nM
  koff: 0.000531 s⁻¹
  kon: 134000 M⁻¹ s⁻¹
cynoCD40(1-193) [5]
  Kd: 1.7 nM
  koff: 0.000137 s⁻¹
  kon: 80600 M⁻¹ s⁻¹
huMSLN(296-598) [6]
  Kd: 0.5 nM
  koff: 0.00027 s⁻¹
  kon: 568000 M⁻¹ s⁻¹
[7]
  EC50 (nM), CD86 upregulation on human B cells in the presence of CHO cells expressing human mesothelin: 0.007 nM
